Patent US20250127877A1 (University of Washington, published 2025)

Biological target: TH-A/New Caledonia/20/1999_2GCN_dn5b (203L/210D/212V/216I) (influenza A virus A/New …)
Experiment: in vitro nanoparticle assembly, purified nanoparticles seen by cryo-EM

B1: I53_dn5A.1 (other)
chain: MGKYDGSKLRIGILHARGNAEIILALVLGALKRLQEFGVKRENIIIETVPGSFELPYGSKLFVEKQKRLGKPLDAIIPIGVLIRGSTPHFDYIADSTTHQLMKLNFELGIPVIFGVITADTDEQAEARAGLIEGKMHNHGEDWGAAAVEMATKFN
Does B1 bind?
Result: binds
